Reference: publication PMC4939597, “Mechanism for insulin-like peptide 5 distinguishing the homologous relaxin family peptide receptor 3 and 4” (Scientific Reports, 2016)
No end group written: not given here.

Key:
[1] = target: T1, human RXFP3 (Homo sapiens, UniProt Q9NSD7); assay: Receptor binding assay, competition with NanoLuc-conjugated R3/I5 tracer
T1 construct: expressed in transfected cells; host or cells: HEK293T
T1 sequence (Q9NSD7 1-469): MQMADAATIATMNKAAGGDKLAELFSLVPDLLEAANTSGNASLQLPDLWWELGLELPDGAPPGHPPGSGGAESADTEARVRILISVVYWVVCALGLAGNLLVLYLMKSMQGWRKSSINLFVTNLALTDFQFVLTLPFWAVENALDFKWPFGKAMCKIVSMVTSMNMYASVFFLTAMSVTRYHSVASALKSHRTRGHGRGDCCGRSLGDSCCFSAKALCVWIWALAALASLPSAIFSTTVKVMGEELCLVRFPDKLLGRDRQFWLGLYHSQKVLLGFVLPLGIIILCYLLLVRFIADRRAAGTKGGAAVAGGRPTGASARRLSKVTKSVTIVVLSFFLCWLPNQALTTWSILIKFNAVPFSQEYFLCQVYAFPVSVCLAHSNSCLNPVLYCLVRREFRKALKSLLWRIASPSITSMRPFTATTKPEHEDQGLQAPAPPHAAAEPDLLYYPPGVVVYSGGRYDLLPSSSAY
In short: (§1)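 HEK293T cells transiently expressing human RXFP3 or RXFP4 were incubated with 0.5 nM NanoLuc-conjugated R3/I5 tracer plus competitor in serum-free DMEM with 1% BSA, 2 h at 21 °C. Nonspecific binding used 1.0 μM human relaxin-3. After washing and lysis, bioluminescence was read and curves fitted sigmoidally (n = 3).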

[2] = target: T2, human RXFP4 (Homo sapiens, UniProt Q8TDU9); assay: as above
T2 construct: expressed in transfected cells; host or cells: HEK293T
In short: as §1

[3] = target: T1, human RXFP3; assay: Receptor activation assay, CRE-controlled NanoLuc reporter; assay type: cell-based
[4] = target: T2, human RXFP4; assay: as above; assay type: cell-based; settings: HEK293T cells cotransfected with human RXFP4 and CRE-controlled NanoLuc reporter, 1.0 μM forskolin, 37 °C, 4 h, mean ± SE, n = 3, SEM
[5] = HEK293T cells transiently overexpressing human RXFP3, 0.5 nM NanoLuc-conjugated R3/I5 tracer, 21 °C, 2 h, mean ± SE, n = 3, SEM
[6] = HEK293T cells transiently overexpressing human RXFP4, 0.5 nM NanoLuc-conjugated R3/I5 tracer, 21 °C, 2 h, mean ± SE, n = 3, SEM

T2 sequence (Q8TDU9 whole entry): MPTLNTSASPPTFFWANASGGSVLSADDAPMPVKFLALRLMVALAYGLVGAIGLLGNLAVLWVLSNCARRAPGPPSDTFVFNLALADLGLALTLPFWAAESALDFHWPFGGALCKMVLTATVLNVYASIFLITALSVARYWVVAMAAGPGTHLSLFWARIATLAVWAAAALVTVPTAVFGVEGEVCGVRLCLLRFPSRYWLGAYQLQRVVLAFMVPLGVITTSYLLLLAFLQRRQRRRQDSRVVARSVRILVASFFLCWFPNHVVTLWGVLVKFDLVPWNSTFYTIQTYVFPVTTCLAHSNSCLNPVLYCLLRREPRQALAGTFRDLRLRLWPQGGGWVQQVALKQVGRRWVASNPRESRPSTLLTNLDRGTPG

Row | pIC50 RXFP3 [1, 5] | pIC50 RXFP4 [2, 6] | activation potency towards RXFP3, result in words ([3]; CRE-controlled NanoLuc reporter, HEK293T cells, human RXFP3) | pEC50 RXFP4 [4] | fold higher binding potency towards RXFP3 than wild-type INSL5 ([1]; higher than wild-type INSL5) | pEC50 RXFP3 ([3]; HEK293T cells cotransfected with human RXFP3 and CRE-controlled NanoLuc reporter, 1.0 μM forskolin, 37 °C, 4 h, mean ± SE, n = 3, N.D., not detectable, SEM) | fold lower binding potency towards RXFP4 compared with wild-type INSL5 ([2]; lower than wild-type INSL5) | pEC50 RXFP3 ([3]; HEK293T cells cotransfected with human RXFP3 and CRE-controlled NanoLuc reporter, 1.0 μM forskolin, 37 °C, 4 h, mean ± SE, n = 3, N.D., not detectable) | fold lower activation potency towards RXFP3 than its parent mutants ([3]; lower than parent mutants [L(B9)R]INSL5 and [Y(B17)F]INSL5) | Compound | IC50 ([1]; HEK293T cells transiently overexpressing human RXFP3, 0.5 nM NanoLuc-conjugated R3/I5 tracer, 21 °C, 2 h, mean ± SE, n = 3, SEM, read-out: pIC50 RXFP3 (converted)) [nM] | IC50 ([2]; HEK293T cells transiently overexpressing human RXFP4, 0.5 nM NanoLuc-conjugated R3/I5 tracer, 21 °C, 2 h, mean ± SE, n = 3, SEM, read-out: pIC50 RXFP4 (converted)) [nM] | EC50 ([3]; HEK293T cells cotransfected with human RXFP3 and CRE-controlled NanoLuc reporter, 1.0 μM forskolin, 37 °C, 4 h, mean ± SE, n = 3, N.D., not detectable, SEM, read-out: pEC50 RXFP3 (converted)) [nM] | EC50 ([4]; read-out: pEC50 RXFP4 (converted)) [nM]
1 |  |  |  |  |  |  |  |  |  | CC[C@H](C)[C@@H]1NC(=O)[C@H](Cc2ccccc2)NC(=O)[C@H](CCC(=O)O)NC(=O)[C@H](CCCNC(=N)N)NC(=O)CNC(=O)[C@@H](NC(=O)[C@H](CC(C)C)NC(=O)[C@H](CCCNC(=N)N)NC(=O)[C@@H](NC(=O)CNC(=O)[C@H](Cc2ccc(O)cc2)NC(=O)[C@@H]2CCCN2C(=O)[C@H](C)NC(=O)[C@H](C)NC(=O)[C@@H](N)CCCNC(=N)N)C(C)C)CSSC[C@@H]2NC(=O)[C@@H](NC(=O)[C@H](CO)NC(=O)[C@H](CO)NC(=O)[C@H](CO)NC(=O)[C@H](CC(C)C)NC(=O)CNC(=O)[C@H](C)NC(=O)[C@H](CC(C)C)NC(=O)[C@@H](NC(=O)[C@@H](N)CC(=O)O)C(C)C)CSSC[C@H](NC(=O)CNC(=O)[C@H](Cc3c[nH]c4ccccc34)NC(=O)[C@H](CCCCN)NC2=O)C(=O)N[C@@H](CO)C(=O)N[C@@H](CCCCN)C(=O)N[C@@H](CO)C(=O)N[C@@H](CCC(=O)O)C(=O)N[C@@H]([C@@H](C)CC)C(=O)N[C@@H](CO)C(=O)N[C@@H](CO)C(=O)N[C@@H](CC(C)C)C(=O)N[C@H](C(=O)O)CSSC[C@@H](C(=O)NCC(=O)NCC(=O)N[C@@H](CO)C(=O)N[C@@H](CCCNC(=N)N)C(=O)N[C@@H](Cc2c[nH]c3ccccc23)C(=O)O)NC(=O)[C@H]([C@@H](C)O)NC(=O)[C@H](Cc2ccccc2)NC(=O)[C@H]([C@@H](C)CC)NC(=O)[C@H](C(C)C)NC(=O)[C@H](C)NC(=O)[C@H](CCCNC(=N)N)NC1=O [relaxin-3, reference compound] | 2.04 | 12.3 | 0.0245 | 0.105
2 | 7.06 ± 0.03 | 7.57 ± 0.05 | no detectable activation potency | 9.05 ± 0.04 |  |  |  |  |  | [T(B14)A]INSL5: recombinant mature two-chain INSL5 mutant (Insulin-like peptide INSL5 B … KESVRLCGLEYIRAVIYICASSRW; Insulin-like peptide INSL5 A … QDLQTLCCTDGCSMTDLSALC; ends and bridges not checked; cysteine pairing not given here; UniProt Q9Y5Q6 23-46; Q9Y5Q6 115-135, looked up, variant T14A) |  |  |  | 
3 | 7.87 ± 0.04 | 7.85 ± 0.03 |  | 9.87 ± 0.04 | ~ 4 fold | 7.21 ± 0.04 |  |  |  | [L(B9)R]INSL5: recombinant mature two-chain INSL5 mutant (Insulin-like peptide INSL5 B … KESVRLCGREYIRTVIYICASSRW; Insulin-like peptide INSL5 A … QDLQTLCCTDGCSMTDLSALC; ends and bridges not checked; cysteine pairing not given here; UniProt Q9Y5Q6 23-46; Q9Y5Q6 115-135, looked up, variant L9R) |  |  |  | 
4 | 8.17 ± 0.04 | 7.33 ± 0.03 |  | 9.20 ± 0.03 |  |  | ~ 3 fold | <6 | ~ 10 fold | [L(B9)R,Y(B17)F]INSL5: recombinant mature two-chain INSL5 mutant (Insulin-like peptide INSL5 B … KESVRLCGREYIRTVIFICASSRW; Insulin-like peptide INSL5 A … QDLQTLCCTDGCSMTDLSALC; ends and bridges not checked; cysteine pairing not given here; UniProt Q9Y5Q6 23-46; Q9Y5Q6 115-135, looked up, variant L9R Y17F) |  |  |  | 
